B1: DGL210 (bispecific antibody)
chain 1: QVQLVESGGGLVQAGGSLRLSCAASGRTFSKHAMGWFRQAPGKEREFVAAIDWSGGSTYYADSVKGRFTISRDNAKNTVYLQMDSLKPEDTAVYYCAADSYTDYAQLWLPELESEYDYWGQGTLVTVSSGGGGSGGGGSGGGGSGGGGSCPPCPAPEAAGAPSVFLFPPKPKDTLMISRTPEVTCVVVDVSHEDPEVKFNWYVDGVEVHNAKTKPREEQYNSTYRVVSVLTVLHQDWLNGKEYKCKVSNKALPAPIEKTISKAKGQPREPQVCTLPPSRDELTKNQVSLSCAVKGFYPSDIAVEWESNGQPENNYKTTPPVLDSDGSFFLVSKLTVDKSRWQQGNVFSCSVMHEALHNHYTQKSLSLSPGWSHPQFEK
chain 2: QLQLVESGGGLVQAGGSLRLSCAASRSITFSHNVMGWYRQAPGKQRELVASIGSGGSTNYVDSVKGRATISRDNAKKTVYLQMNSLKPEDTAVYYCGVVVGVYRGSLGQGTLVTVSSGGGGSGGGGSGGGGSGGGGSCPPCPAPEAAGAPSVFLFPPKPKDTLMISRTPEVTCVVVDVSHEDPEVKFNWYVDGVEVHNAKTKPREEQYNSTYRVVSVLTVLHQDWLNGKEYKCKVSNKALPAPIEKTISKAKGQPREPQVYTLPPCRDELTKNQVSLWCLVKGFYPSDIAVEWESNGQPENNYKTTPPVLDSDGSFFLYSKLTVDKSRWQQGNVFSCSVMHEALHNHYTQKSLSLSPGEPEA
B2: DGL211 (bispecific antibody)
chain 1: QVQLVESGGGLVQAGGSLRLSCAASGRTFSKHAMGWFRQAPGKEREFVAAIDWSGGSTYYADSVKGRFTISRDNAKNTVYLQMDSLKPEDTAVYYCAADSYTDYAQLWLPELESEYDYWGQGTLVTVSSEKSYGPPCPPCPAPEAAGAPSVFLFPPKPKDTLMISRTPEVTCVVVDVSHEDPEVKFNWYVDGVEVHNAKTKPREEQYNSTYRVVSVLTVLHQDWLNGKEYKCKVSNKALPAPIEKTISKAKGQPREPQVCTLPPSRDELTKNQVSLSCAVKGFYPSDIAVEWESNGQPENNYKTTPPVLDSDGSFFLVSKLTVDKSRWQQGNVFSCSVMHEALHNHYTQKSLSLSPGWSHPQFEK
chain 2: QLQLVESGGGLVQAGGSLRLSCAASRSITFSHNVMGWYRQAPGKQRELVASIGSGGSTNYVDSVKGRATISRDNAKKTVYLQMNSLKPEDTAVYYCGVVVGVYRGSLGQGTLVTVSSEKSYGPPCPPCPAPEAAGAPSVFLFPPKPKDTLMISRTPEVTCVVVDVSHEDPEVKFNWYVDGVEVHNAKTKPREEQYNSTYRVVSVLTVLHQDWLNGKEYKCKVSNKALPAPIEKTISKAKGQPREPQVYTLPPCRDELTKNQVSLWCLVKGFYPSDIAVEWESNGQPENNYKTTPPVLDSDGSFFLYSKLTVDKSRWQQGNVFSCSVMHEALHNHYTQKSLSLSPGEPEA
B3: DGL213 (bispecific antibody)
chain 1: QVQLVESGGGLVQAGGSLRLSCAASGRTFSKHAMGWFRQAPGKEREFVAAIDWSGGSTYYADSVKGRFTISRDNAKNTVYLQMDSLKPEDTAVYYCAADSYTDYAQLWLPELESEYDYWGQGTLVTVSSDKTHTCPPCPAPEAAGAPSVFLFPPKPKDTLMISRTPEVTCVVVDVSHEDPEVKFNWYVDGVEVHNAKTKPREEQYNSTYRVVSVLTVLHQDWLNGKEYKCKVSNKALPAPIEKTISKAKGQPREPQVCTLPPSRDELTKNQVSLSCAVKGFYPSDIAVEWESNGQPENNYKTTPPVLDSDGSFFLVSKLTVDKSRWQQGNVFSCSVMHEALHNHYTQKSLSLSPGWSHPQFEK
chain 2: QLQLVESGGGLVQAGGSLRLSCAASRSITFSHNVMGWYRQAPGKQRELVASIGSGGSTNYVDSVKGRATISRDNAKKTVYLQMNSLKPEDTAVYYCGVVVGVYRGSLGQGTLVTVSSCPPCPAPEAAGAPSVFLFPPKPKDTLMISRTPEVTCVVVDVSHEDPEVKFNWYVDGVEVHNAKTKPREEQYNSTYRVVSVLTVLHQDWLNGKEYKCKVSNKALPAPIEKTISKAKGQPREPQVYTLPPCRDELTKNQVSLWCLVKGFYPSDIAVEWESNGQPENNYKTTPPVLDSDGSFFLYSKLTVDKSRWQQGNVFSCSVMHEALHNHYTQKSLSLSPGEPEA
B4: DGL214 (bispecific antibody)
chain 1: B3 chain 1
chain 2: not shown
B5: DGL212 (bispecific antibody)
chain 1: B3 chain 1
chain 2: not shown

Columns and labels:
[1] = molecular target: T1, IL-18 receptor (IL-18Rα and IL-18Rβ) on HEK-Blue IL-18 cells (UniProt Q13478 19-541; O95256 20-599, limits assumed); experiment: cell-based or functional assay
T1 sequence (looked up) 1: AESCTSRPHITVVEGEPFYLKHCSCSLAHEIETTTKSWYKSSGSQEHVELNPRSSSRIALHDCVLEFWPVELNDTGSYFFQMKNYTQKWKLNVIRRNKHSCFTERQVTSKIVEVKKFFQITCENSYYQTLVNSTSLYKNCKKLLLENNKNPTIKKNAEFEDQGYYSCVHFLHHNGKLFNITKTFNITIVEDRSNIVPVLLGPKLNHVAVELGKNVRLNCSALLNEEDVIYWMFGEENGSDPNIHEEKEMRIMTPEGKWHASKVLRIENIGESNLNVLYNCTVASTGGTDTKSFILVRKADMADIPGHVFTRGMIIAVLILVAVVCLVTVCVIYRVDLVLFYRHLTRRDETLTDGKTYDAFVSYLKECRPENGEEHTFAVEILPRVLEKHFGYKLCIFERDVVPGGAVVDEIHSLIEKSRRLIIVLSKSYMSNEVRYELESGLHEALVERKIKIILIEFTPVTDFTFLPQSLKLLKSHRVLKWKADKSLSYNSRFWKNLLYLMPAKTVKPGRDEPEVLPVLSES
T1 sequence (looked up) 2: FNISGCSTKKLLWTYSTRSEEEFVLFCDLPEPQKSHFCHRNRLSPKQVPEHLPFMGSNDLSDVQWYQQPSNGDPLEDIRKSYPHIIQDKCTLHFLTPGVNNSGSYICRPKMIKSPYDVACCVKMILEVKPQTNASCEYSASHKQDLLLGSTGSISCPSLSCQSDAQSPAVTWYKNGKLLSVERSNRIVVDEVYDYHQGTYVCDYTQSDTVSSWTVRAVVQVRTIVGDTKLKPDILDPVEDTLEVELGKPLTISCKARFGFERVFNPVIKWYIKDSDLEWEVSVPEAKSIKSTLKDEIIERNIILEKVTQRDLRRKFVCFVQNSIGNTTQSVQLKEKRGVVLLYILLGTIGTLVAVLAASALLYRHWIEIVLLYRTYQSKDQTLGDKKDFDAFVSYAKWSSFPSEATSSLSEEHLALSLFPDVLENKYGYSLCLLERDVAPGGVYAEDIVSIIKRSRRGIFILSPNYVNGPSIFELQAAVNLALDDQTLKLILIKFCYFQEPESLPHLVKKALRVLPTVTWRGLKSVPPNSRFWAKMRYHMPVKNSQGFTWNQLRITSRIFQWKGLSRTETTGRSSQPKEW

[2] = molecular target: T1, IL-18 receptor (IL-18Rα and IL-18Rβ) on …; experiment: cell-based or functional assay; remark: listed apart in the source

Row | Binder | HEK-Blue assay, % human IL-18 [1] | HEK-Blue assay, % human IL18 [2]
1 | B1 | 34 % of human IL18 activity | –
2 | B2 | 50 % of human IL18 activity | –
3 | B3 | – | 42 % human IL18
4 | B4 | – | 31 % human IL18
5 | B5 | 41 % of human IL18 activity | –

Source: patent US20240383990A1 (DIAGONAL THERAPEUTICS, published 2024)
